Experimental data: IntAct's records for PubMed 19194460

B1: Decapping nuclease din1 (Schizosaccharomyces pombe (strain ATCC 38366 / 972)), O13836 (parent)
chain: MLREFSFYDVPPAHVPPVSEPLEIACYSLSRDRELLLDDSKLSYYYPPPLFSDLNTGFPNRFHPPKSDPDPISIVKDVLMTKGIQMNSSFLTWRGLITKIMCAPLDPRNHWETYLVMDPTSGIIMMEERTRSETSYANQDRMCYWGYKFEAISTLPEIWDACSRDQIEQRDNQDVVPDEQYCSIVKINIGKSKLILAGEVDCIWDKKPCSAKESDVHSDDGTIEEDASNAENPNLHYVELKTSKKYPLENYGMRKKLLKYWAQSFLLGIGRIIIGFRDDNGILIEMKELFTHQIPKMLRPYFKPNDWTPNRLLVVLEHALEWIKQTVKQHPPSTEFTLSYTGGSKLVLRQII
partner: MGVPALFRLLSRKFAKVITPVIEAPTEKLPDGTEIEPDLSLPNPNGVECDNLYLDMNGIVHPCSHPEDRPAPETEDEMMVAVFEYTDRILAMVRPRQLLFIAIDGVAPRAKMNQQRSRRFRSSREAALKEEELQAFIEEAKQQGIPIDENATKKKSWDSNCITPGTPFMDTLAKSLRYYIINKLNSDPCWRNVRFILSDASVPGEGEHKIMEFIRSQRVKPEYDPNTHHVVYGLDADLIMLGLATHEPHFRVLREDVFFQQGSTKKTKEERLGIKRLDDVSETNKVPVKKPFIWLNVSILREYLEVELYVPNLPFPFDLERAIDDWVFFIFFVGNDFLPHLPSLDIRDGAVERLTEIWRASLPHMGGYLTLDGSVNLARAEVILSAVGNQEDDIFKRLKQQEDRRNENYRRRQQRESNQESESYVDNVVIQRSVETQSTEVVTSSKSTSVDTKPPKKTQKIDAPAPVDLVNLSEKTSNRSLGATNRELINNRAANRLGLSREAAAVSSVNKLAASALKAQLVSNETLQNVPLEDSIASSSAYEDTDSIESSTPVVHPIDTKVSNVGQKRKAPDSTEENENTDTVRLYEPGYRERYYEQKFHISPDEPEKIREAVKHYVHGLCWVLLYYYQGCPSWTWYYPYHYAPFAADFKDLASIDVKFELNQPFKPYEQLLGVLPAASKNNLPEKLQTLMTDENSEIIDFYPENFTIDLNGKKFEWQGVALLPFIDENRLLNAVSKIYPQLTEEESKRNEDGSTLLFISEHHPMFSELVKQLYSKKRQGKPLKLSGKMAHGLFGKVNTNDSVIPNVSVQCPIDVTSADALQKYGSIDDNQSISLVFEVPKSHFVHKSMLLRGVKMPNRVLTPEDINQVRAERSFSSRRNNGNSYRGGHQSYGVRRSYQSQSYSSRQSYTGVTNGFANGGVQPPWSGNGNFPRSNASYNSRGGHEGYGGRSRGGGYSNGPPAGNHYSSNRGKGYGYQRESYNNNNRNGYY

Variants of: B1
Conditions: with xrn2_schpo dhp1, P40848

Effect of a mutation on the interaction, decreasing interaction:
R164A
W159A
W204A
